These results are taken from CN111995676A (UNIV WEIFANG MEDICAL, dated 2020).

B1: 噬菌体展示的A4抗体 (单克隆抗体A4) (antibody, V domains shown)
VH: EVQLLESGGGLVQPGGSLRLSCAASGFTFSSYAMSWVRQAPGKGLEWVSYITNNGANTSYADSVKGRFTISRDNSKNTLYLQMNSLRAEDTAVYYCAKSYATFDYWGQGTLVTVSS
VL: DIQMTQSPSSLSASVGDRVTITCRASQSISSYLNWYQQKPGKAPKLLIYNASGLQSGVPSRFSGSGSGTDFTLTISSLQPEDFATYYCQQAAYYPTTFGQGTKVEIKR
notes: also called 噬菌体展示A4抗体; A4噬菌体
B2: 噬菌体展示的A2抗体 (单克隆抗体A2) (antibody, V domains shown)
VH: EVQLLESGGGLVQPGGSLRLSCAASGFTFSSYAMSWVRQAPGKGLEWVSGIDASGYYTSYADSVKGRFTISRDNSKNTLYLQMNSLRAEDTAVYYCAKDAYTFDYWGQGTLVTVSS
VL: DIQMTQSPSSLSASVGDRVTITCRASQSISSYLNWYQQKPGKAPKLLIYSASYLQSGVPSRFSGSGSGTDFTLTISSLQPEDFATYYCQQASADPDTFGQGTKVEIKR
B3: 噬菌体展示的C3抗体 (单克隆抗体C3) (antibody, V domains shown)
VH: EVQLLESGGGLVQPGGSLRLSCAASGFTFSSYAMSWVRQAPGKGLEWVSSIASSGYYTDYADSVKGRFTISRDNSKNTLYLQMNSLRAEDTAVYYCAKDADSFDYWGQGTLVTVSS
VL: DIQMTQSPSSLSASVGDRVTITCRASQSISSYLNWYQQKPGKAPKLLIYAASYLQSGVPSRFSGSGSGTDFTLTISSLQPEDFATYYCQQAYSAPSTFGQGTKVEIKR

For the test, the target named is T1, 牛血清白蛋白BSA (bovine, UniProt P02769 25-607).
T1 construct: also called BSA蛋白; 牛血清蛋白
T1 sequence (P02769 25-607 limits assumed): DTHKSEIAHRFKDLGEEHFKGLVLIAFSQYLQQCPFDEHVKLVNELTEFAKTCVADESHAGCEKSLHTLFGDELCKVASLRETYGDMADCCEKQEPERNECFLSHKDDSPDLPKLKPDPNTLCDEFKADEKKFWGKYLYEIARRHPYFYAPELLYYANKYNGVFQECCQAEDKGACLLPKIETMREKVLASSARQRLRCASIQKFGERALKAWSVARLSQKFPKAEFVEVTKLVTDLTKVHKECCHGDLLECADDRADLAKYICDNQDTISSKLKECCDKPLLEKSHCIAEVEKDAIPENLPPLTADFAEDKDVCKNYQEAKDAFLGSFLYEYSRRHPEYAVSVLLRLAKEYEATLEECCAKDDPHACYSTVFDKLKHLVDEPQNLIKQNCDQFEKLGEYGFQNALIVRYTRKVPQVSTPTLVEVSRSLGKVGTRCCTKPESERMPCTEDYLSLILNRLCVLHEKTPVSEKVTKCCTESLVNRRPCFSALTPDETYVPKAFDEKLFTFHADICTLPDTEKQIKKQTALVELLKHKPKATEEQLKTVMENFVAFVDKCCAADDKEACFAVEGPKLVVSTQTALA
Kind of test: phage ELISA, coated protein. For orientation: In an ELISA, binding on a coated surface is turned into a signal by an enzyme label.
Consider B1, for which the binding result is “no binding (tested: 1μg/mL coated)”.
Take B2: the binding result is on record as “no binding (tested: 1μg/mL coated)”.
Turning to B3, the binding result is listed as “no binding (tested: 1μg/mL coated)”.
